This is an account of results in patent US20230097573A1 (LG CHEM, published 2023).

Sequences and labels used below:
B1: FcRn-109 (designed binder)
chain: MIPRGLSEAKPATPEIQEIVDKVKPQLEEKTNETYGKLEAVQYKTQVLARPHNRDSHRSTNYYIKVRAGDNKYMHLKVFNGPDRKHRKHWHADRVLTGYQVDKNKDDELTGFHHHHHH
notes: AFFIMER (stefin A variant)
B2: FcRn-16 (designed binder)
chain: MIPRGLSEAKPATPEIQEIVDKVKPQLEEKTNETYGKLEAVQYKTQVLAKHHHHKHQHSTNYYIKVRAGDNKYMHLKVFNGPVFLHNESHQADRVLTGYQVDKNKDDELTGFHHHHHH
notes: AFFIMER (stefin A variant)
B3: FcRn-176 (designed binder)
chain: MIPRGLSEAKPATPEIQEIVDKVKPQLEEKTNETYGKLEAVQYKTQVLAGRHHESHKSSTNYYIKVRAGDNKYMHLKVFNGPFQHKLHKHHADRVLTGYQVDKNKDDELTGFHHHHHH
notes: AFFIMER (stefin A variant)
B4: FcRn-18 (designed binder)
chain: MIPRGLSEAKPATPEIQEIVDKVKPQLEEKTNETYGKLEAVQYKTQVLAETPHERHKTSTNYYIKVRAGDNKYMHLKVFNGPKRWLKHHAHADRVLTGYQVDKNKDDELTGFHHHHHH
notes: AFFIMER (stefin A variant)
B5: FcRn-88 (designed binder)
chain: MIPRGLSEAKPATPEIQEIVDKVKPQLEEKTNETYGKLEAVQYKTQVLAHHTKHHSRWSTNYYIKVRAGDNKYMHLKVFNGPVNHISHAPIADRVLTGYQVDKNKDDELTGFHHHHHH
notes: AFFIMER (stefin A variant)
B6: FcRn-48 (designed binder)
chain: MIPRGLSEAKPATPEIQEIVDKVKPQLEEKTNETYGKLEAVQYKTQVLAKPKYHHHDISTNYYIKVRAGDNKYMHLKVFNGPGHHAKPHRWADRVLTGYQVDKNKDDELTGFHHHHHH
notes: AFFIMER (stefin A variant)
B7: FcRn-12 (designed binder)
chain: MIPRGLSEAKPATPEIQEIVDKVKPQLEEKTNETYGKLEAVQYKTQVLAKVKTHDHQRSTNYYIKVRAGDNKYMHLKVFNGPIHQHHSQDWADRVLTGYQVDKNKDDELTGFHHHHHH
notes: AFFIMER (stefin A variant)

T2 sequence (P55899 24-297 limits assumed, chain 1 of 2): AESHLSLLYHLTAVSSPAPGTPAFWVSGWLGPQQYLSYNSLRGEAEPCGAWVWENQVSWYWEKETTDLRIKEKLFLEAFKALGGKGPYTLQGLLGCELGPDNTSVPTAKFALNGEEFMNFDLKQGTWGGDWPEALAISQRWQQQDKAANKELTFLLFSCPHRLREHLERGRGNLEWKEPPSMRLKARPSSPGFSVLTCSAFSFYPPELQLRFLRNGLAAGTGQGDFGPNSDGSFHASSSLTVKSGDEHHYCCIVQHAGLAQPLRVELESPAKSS
T2 sequence (P61769 21-119 limits assumed, chain 2 of 2): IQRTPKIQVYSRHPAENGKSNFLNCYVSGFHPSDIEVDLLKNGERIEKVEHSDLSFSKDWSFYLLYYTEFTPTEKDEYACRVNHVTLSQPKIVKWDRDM

The target of the first assay is T1, hFcRn with a His-tag (human, UniProt P55899 24-297; P61769 21-119).
T1 construct: It may be the same product as m1; also called huFcRn (His tagged molecule, BPS); not shown: His-tag
T1 sequence (P55899 24-297 limits assumed, chain 1 of 2): as the sequence (P55899 24-297 limits assumed, chain 1 of 2) above
T1 sequence (P61769 21-119 limits assumed, chain 2 of 2): as the sequence (P61769 21-119 limits assumed, chain 2 of 2) above
Kind of assay: BLI (Octet), His-hFcRn on Ni-NTA biosensor, Affimer 40 nM, pH 6.0. The procedure: (§1) A BLI (Bio-Layer Interferometry)-based binding assay was performed for AFFIMER® screening in which the affinity to FcRn varies depending on the pH. hFcRn with a His-tag was fixed to a Ni-NTA biosensor. Thereafter, in the hFcRn and the AFFIMER® candidate group, Ni²⁺ not bound to the hFcRn was blocked using His-SQT-gly with a high concentration, in which reactivity is absent. Then, the AFFIMER® candidate group diluted to the same concentration was reacted with the hFcRn. All affimers were analyzed at pH 6.0 and pH 7.4, and KD was determined with a 1:1 binding model.
For orientation: BLI is a label-free optical method that tracks binding on a fibre tip over time.
B1: the Response stood at 1.16.

The molecule B2 had a Response of 1.07.

Turning to B3, the Response is 1.02.

Regarding B4, the Response came out at 1.2.

In turn, B5 returned a Response of 1.12.

The molecule B6 displayed a Response of 1.44.

The molecule B7 came in with a Response of 0.836.

A further assay has as its target T1, hFcRn with a His-tag. Kind of assay: BLI (Octet), His-hFcRn on Ni-NTA biosensor, Affimer 40 nM, pH 6.0, 1:1 model. The protocol: as §1
Consider B1, for which binding was characterised by a dissociation constant (Kd) of 0.00927 µM.

For the molecule B2, the Kd (as a rule, a measure of binding affinity in units of concentration) stood at 0.0205 µM.

With B3, the dissociation constant (Kd) stood at 0.0105 µM.

B4 returned an equilibrium dissociation constant (Kd) of 0.016 µM.

B5: binding was put at a Kd of 0.0187 µM.

Turning to B6, binding was put at a Kd of 0.00876 µM.

With B7, the dissociation constant (Kd) was determined as 0.0284 µM.

The target of another assay is T1, hFcRn with a His-tag. As to the kind of experiment: BLI (Octet), His-hFcRn on Ni-NTA biosensor, Affimer 40 nM, pH 7.4. The protocol: as §1
Regarding B1, the Response turned out to be 0.602.

In turn, B2 returned a Response of 0.631.

B3 registered a Response of 0.595.

For B4, the Response is 0.794.

B5 gave a Response of 0.71.

Molecule B6 registered a Response of 0.803.

B7 had a Response of 0.582.

A further assay has as its target T1, hFcRn with a His-tag. As to the kind of experiment: BLI (Octet), His-hFcRn on Ni-NTA biosensor, Affimer 40 nM, pH 7.4, 1:1 model. The procedure: as §1
B1 came in with a dissociation constant Kd of 0.0612 µM.

Regarding B2, the Kd was determined as 0.0833 µM.

The molecule B3 registered a dissociation constant Kd of 0.0579 µM.

Consider B4, for which the equilibrium dissociation constant (Kd) came to 0.065 µM.

B5: the dissociation constant (Kd) turned out to be 0.0828 µM.

Consider B6, for which binding was put at a Kd of 0.0593 µM.

With B7, binding was put at a Kd of 0.123 µM.

Another assay concerns the target T2, Hu FcRn (BPS Bioscience) (human, UniProt P55899 24-297; P61769 21-119).
T2 construct: Bought recombinant protein coated on ELISA plates; also called human FcRn; human neonatal Fc receptor
As to the kind of experiment: optimized ELISA on FcRn, pH 7.4. For orientation: An ELISA detects its analyte on a solid surface through an enzyme-linked reagent.
As to B1, the EC50 (in general, the concentration at which the effect is half-maximal) is 15.7 µM.

For the molecule B2, the EC50 came to 48.6 µM.

Molecule B3 gave an EC50 of 78.9 µM.

With B4, the 50% effective concentration (EC50) is 19.7 µM.

As for B5, a half-maximal response (EC50) required 23.3 µM.

For B6, a half-maximal effect (EC50) was put at 79.9 µM.

As for B7, the EC50 was determined as 15.7 µM.

The next assay has as its target T2, Hu FcRn (BPS Bioscience). As to the kind of experiment: optimized ELISA on FcRn, pH 6.
The molecule B1 registered a concentration giving a half-maximal response (EC50) of 0.57 µM.

Take B2: a half-maximal response (EC50) required 1.02 µM.

B3 showed a half-maximal effective concentration (EC50) of 4.48 µM.

On to B4, for which a half-maximal response (EC50) required 0.327 µM.

On to B5, for which the midpoint of the response, the EC50, lay at 0.967 µM.

For B6, the EC50 was 1.5 µM.

With B7, the half-maximal effective concentration (EC50) was 0.262 µM.

A further assay deals with T1, hFcRn with a His-tag. Kind of assay: BLI (Octet); ratio of KD at pH 7.4 to KD at pH 6.0. The protocol:
as §1
Consider B1, for which the “pH 7.4/pH 6.0 (KD ratio)” value amounted to 6.6.

As for B3, the “pH 7.4/pH 6.0 (KD ratio)” value was 5.5.

With B5, the “pH 7.4/pH 6.0 (KD ratio)” value worked out at 4.4.

As to B6, the “pH 7.4/pH 6.0 (KD ratio)” value was determined as 6.8.

For B7, the “pH 7.4/pH 6.0 (KD ratio)” value came to 4.3.
